Results: article PMC8299502

T1: Dazl(RRM) (Mus musculus, UniProt Q64368 32-117)
T1 sequence: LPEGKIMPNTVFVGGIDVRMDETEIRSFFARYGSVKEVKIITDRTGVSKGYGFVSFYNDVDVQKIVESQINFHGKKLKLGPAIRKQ

T2: RbFox(RRM) (UniProt Q9NWB1 109-208)
T2 sequence: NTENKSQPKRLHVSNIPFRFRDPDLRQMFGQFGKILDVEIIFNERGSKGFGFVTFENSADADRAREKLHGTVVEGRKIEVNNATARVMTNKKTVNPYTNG


Assays:
[1] = target: T1, Dazl(RRM); experiment: fluorescence anisotropy
[2] = target: T2, RbFox(RRM); experiment: fluorescence anisotropy

Binder | binding result [1] | binding result [2]
UUGUUCUUU (ssRNA) [Dazl cognate RNA] | binds | –
UCCUGCAUGUUUA (ssRNA) [RbFox cognate RNA] | – | binds
